According to paper PMC10206189 (2023):

T1: mouse Plexin-B1 (20–535)-6xHis (mouse, UniProt Q8CJH3 20-535)
T1 chain: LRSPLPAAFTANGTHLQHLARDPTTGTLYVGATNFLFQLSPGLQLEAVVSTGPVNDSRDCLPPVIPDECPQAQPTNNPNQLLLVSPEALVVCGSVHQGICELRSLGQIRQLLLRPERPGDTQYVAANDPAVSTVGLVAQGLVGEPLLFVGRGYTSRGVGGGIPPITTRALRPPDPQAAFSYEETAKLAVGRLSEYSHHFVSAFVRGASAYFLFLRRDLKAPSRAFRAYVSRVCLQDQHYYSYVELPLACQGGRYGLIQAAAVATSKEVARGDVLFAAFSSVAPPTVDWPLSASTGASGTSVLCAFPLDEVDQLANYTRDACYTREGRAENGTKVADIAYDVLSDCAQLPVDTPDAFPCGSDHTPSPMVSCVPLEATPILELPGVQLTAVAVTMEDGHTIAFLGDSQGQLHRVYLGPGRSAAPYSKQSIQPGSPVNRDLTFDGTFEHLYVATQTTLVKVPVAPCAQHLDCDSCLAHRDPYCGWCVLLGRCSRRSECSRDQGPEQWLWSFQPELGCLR


Biological target: T1, mouse Plexin-B1 (20–535)-6xHis
Assay: BLI

koff | Binder
1.66e-05 s⁻¹ | VHH14-Fc (Fc fusion) QVQLQESGGGLVQAGGSLRLSCAASGFTLGYYAIGWFRQAPGKEREEVSCINASGGSTFYEDSVKGRFTISRDNAKNTVFLQMNRLKPEDTAVYYCAAACEVVAVGYWGQGTQVTVSA
0.002 s⁻¹ | VHH15-Fc (Fc fusion) QVQLQESGGGLVQPGGSLRLSCAASGFRLDYYAIGWFRQAPGKEREGVLCISSSGGSINYADSVKGRFTISRDNAKNTVYLQMNSLKPEDTAVYYCGASSYNTQRAECYGMDYWGKGTQVTVSA
